Laboratory results published in publication PMC4497409.

Target: T1, Norrin (Norrie Disease Protein), recombinant wild-type after removal of the SUMO fusion tag (human), Q00604
T1 chain: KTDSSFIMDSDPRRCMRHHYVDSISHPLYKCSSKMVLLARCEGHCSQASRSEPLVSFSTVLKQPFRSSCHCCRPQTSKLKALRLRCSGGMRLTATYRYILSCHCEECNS
Test: SAXS; Norrin at 0.75 and 1.26 mg/ml in 10 mM HEPES, pH 7.5, 0.7 M NaCl, 0.5% CHAPS; 293 K
Settings: remark: other sources report otherwise

- stoichiometry N: 2
B1: Norrin (Norrie Disease Protein), recombinant wild-type after removal of the SUMO fusion tag, Q00604 25-133 (ligand)
chain: T1 chain
